Laboratory results as given in article PMC6366716.

Molecular target: Fbw7α (UniProt Q969H0)
Test: anti-HA co-IP, anti-FLAG blot
Details: reference: wild-type HA-SV40 LT; sites T701

SV40 LT (from UniProt P03070) HA-SV40 LT T701A
binding against the reference: lost
